Measurements from article PMC5922973, “Topoisomerase VI senses and exploits both DNA crossings and bends to facilitate strand passage” (eLife, 2018).
Changes are numbered by the printed parent chain.

Experiments:
topo VI KGRR-AAA [1] = target: T1, topo VI KGRR-AAA (Methanosarcina mazei, UniProt Q8PUB7;Q8PUB8 1-369;1-621, K186A;R188A;R189A); experiment: fluorescence anisotropy; FA: 20 nM probe, 50 mM K-glutamate, 20 mM HEPES-KOH pH 7.5, 10 mM MgCl2, 5% glycerol, 1 mM TCEP, 0.1 mg/mL BSA; incubated on ice, read at ambient temperature; competition with 100 nM enzyme; settings: protein: recombinant; tags: N-terminal His6-TEV on Top6B, removed; chain copies: 2;2; label: 5'-FAM strand 1; blunt
T1 sequence 1: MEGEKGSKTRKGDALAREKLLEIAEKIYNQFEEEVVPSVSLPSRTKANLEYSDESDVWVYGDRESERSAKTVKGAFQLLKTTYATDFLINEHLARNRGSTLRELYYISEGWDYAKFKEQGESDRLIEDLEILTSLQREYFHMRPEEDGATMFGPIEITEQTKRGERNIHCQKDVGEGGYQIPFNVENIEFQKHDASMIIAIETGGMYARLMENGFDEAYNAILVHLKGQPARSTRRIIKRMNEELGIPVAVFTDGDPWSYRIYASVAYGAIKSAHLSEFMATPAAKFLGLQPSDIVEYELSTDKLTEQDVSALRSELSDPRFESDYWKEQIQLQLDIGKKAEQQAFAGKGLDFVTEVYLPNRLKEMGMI
T1 sequence 2: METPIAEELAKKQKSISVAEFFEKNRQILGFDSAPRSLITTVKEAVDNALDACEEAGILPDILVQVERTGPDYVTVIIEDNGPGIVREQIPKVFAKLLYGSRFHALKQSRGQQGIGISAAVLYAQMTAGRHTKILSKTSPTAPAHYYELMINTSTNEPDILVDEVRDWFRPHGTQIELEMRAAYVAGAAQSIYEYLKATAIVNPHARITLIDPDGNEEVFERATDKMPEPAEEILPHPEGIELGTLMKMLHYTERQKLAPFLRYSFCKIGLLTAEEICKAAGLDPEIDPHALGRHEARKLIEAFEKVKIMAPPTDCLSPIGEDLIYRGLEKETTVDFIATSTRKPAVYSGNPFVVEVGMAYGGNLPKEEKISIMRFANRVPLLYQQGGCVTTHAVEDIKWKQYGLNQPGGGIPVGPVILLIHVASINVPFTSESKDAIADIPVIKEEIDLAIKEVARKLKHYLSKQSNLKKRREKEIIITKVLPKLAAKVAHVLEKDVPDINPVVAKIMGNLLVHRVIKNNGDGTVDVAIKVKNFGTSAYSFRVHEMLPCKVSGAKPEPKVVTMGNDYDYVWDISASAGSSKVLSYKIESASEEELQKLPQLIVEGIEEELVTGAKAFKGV

topo VI KGRR-EEE = target: T2, topo VI KGRR-EEE (Methanosarcina mazei, UniProt Q8PUB7;Q8PUB8 1-369;1-621, K186E;R188E;R189E); experiment: as above; settings: protein: recombinant; tags: N-terminal His6-TEV on Top6B, removed; chain copies: 2;2; label: 5'-FAM strand 1; blunt
T2 sequence 1: T1 sequence 1
T2 sequence 2: T1 sequence 2 with A186E, A188E, A189E

topo VI H2TH-EEE = target: T3, topo VI H2TH-EEE (Methanosarcina mazei, UniProt Q8PUB7;Q8PUB8 1-369;1-621, R263E;K268E;K308E); experiment: fluorescence anisotropy; Hill h 1.6; FA: 20 nM probe, 50 mM K-glutamate, 20 mM HEPES-KOH pH 7.5, 10 mM MgCl2, 5% glycerol, 1 mM TCEP, 0.1 mg/mL BSA; incubated on ice, read at ambient temperature; competition with 100 nM enzyme; settings: protein: recombinant; tags: N-terminal His6-TEV on Top6B, removed; chain copies: 2;2; label: 5'-FAM strand 1; blunt
T3 sequence 1: T1 sequence 1
T3 sequence 2: T1 sequence 2 with A186K, A188R, A189R, R263E, K268E, K308E

topo VI KGRR-AAA [2] = target: T1, topo VI KGRR-AAA; experiment: fluorescence anisotropy; 10 mM Mg2+; ambiguous, poorly defined dFAmax; FA: 20 nM probe, 50 mM K-glutamate, 20 mM HEPES-KOH pH 7.5, 10 mM MgCl2, 5% glycerol, 1 mM TCEP, 0.1 mg/mL BSA; incubated on ice, read at ambient temperature; competition with 100 nM enzyme; settings: protein: recombinant; tags: N-terminal His6-TEV on Top6B, removed; chain copies: 2;2; label: 5'-FAM on S1; four-way Holliday junction, stacked-X, two GAAA-capped arms

B1: 60 bp duplex (dsDNA)
DNA 1: CGCTTCAATAATATTGAAAAAGGAAGAGTATGAGTATTCAACATTTCCGTGTCGCCCTTC
DNA 2: GAAGGGCGACACGGAAATGTTGAATACTCATACTCTTCCTTTTTCAATATTATTGAAGCG
For B1, the Kd (topo VI KGRR-AAA [1]) was 99 ± 2 nM and the Kd (topo VI KGRR-EEE) was 119 ± 3 nM.

B2: 40 bp duplex (dsDNA)
DNA 1: CTATTGAAAAAGGAAGAGTATGAGTATTCAACATTTCCGC
DNA 2: GCGGAAATGTTGAATACTCATACTCTTCCTTTTTCAATAG
In the case of B2, the Kd (topo VI H2TH-EEE) is reported as 45 ± 2 nM.

B3: 16 x 20 bp stacked junction (structured_DNA)
DNA 1: CGAATACTCAGCTCAACCGAAAGGTTGAGCCTTCGCTCGAAAGAGCGAAGTACTCTTCCG
DNA 2: CGGAAGAGTATGAGTATTCG
Work on B3 yielded a Kd (topo VI KGRR-AAA [2]) of roughly 758 nM.
